Experimental data: patent US20110201105A1, “LACTATION-ASSOCIATED POLYPEPTIDES” (Dairy Australia Limited, priority 2007, published 2011)

Experiments:
chicks = assay: Chick growth assay (in ovo injection, weight at hatching); assay type: in vivo; conditions: for Chick weight: bovine polypeptides in conditioned media, 1 ml in ovo on day 16 of incubation, weighed on day of hatching, Saline 51.0; for death / overall condition of chick: in ovo injection on day 16 of incubation
Protocol: FIG. 5. Chick growth assay by measuring weight. 10 LAMs (being bovine homologues having homology to specific Tammar ESTs), 3 known bovine cathelicidins, and four bovine cathelicidin variants were tested. Conditioned media containing a LAM polypeptides or bovine cathelicidins or variants thereof was diluted in a total of 1 ml of normal saline. Eggs on day 16 of incubation were injected with 1 ml of the media containing the into the broad end of the egg. Chicks were weighed on day of hatching. The overall condition of the chick was assessed including the possible presence of stumpy legs and/or loss of down feathers.
Conditioned media containing LAM polypeptides or bovine cathelicidins or variants thereof were diluted in a total of 1 ml of normal saline. Eggs on day 16 of incubation were injected in ovo with 1 ml of LAM polypeptides or bovine cathelicidins or variants thereof into the broad end of the egg. Chicks were weighed on day of hatching. Controls included saline only, or saline and 10 mg/ml of a peptide as a random peptide control.
As set out in Table 23, the left column indicates the polypeptide used in the assay while the right column contains chick weight in grams as a measurement of chick growth. Bolded numbers represent a chick(s) larger than the controls and more than 2 standard deviations from the mean. In addition, bolded numbers represent chicks that have been killed. The mean represents the weight of all the chicks tested within this experiment.

AGS cells = assay: Cell growth using bovine cathelicidin variants in AGS cells (SRB assay); assay type: cell-based, human; design: unit not given here; conditions: 72 hours; for cell growth Replicate 3: -ve control 0.233; for cell growth Replicate 1: -ve control 0.247; for cell growth Replicate 4: -ve control 0.265; for cell growth Replicate 2: -ve control 0.316; for cell growth Mean: -ve control mean 0.265
Protocol: A cellular growth assay was performed using seven bovine cathelicidin (CATHL) variants, namely CATHL1, 4, and 6 which are known in the art (the relevant sequences can be obtained using the following hyperlink: http://www.ncbi.nlm.nih.gov/entrez/query.fcqi?db=unigene&cmd=search&term=cathelicidin) and bovine Cathelicidins 8, 9, 10 and 11 (being LAMs 32.8, 32.9, 32.10 and 32.11, respectively) as identified herein and which are derived from LAM 32. The bovine cathelicidin associated LAMs were derived by sequence comparison to the tammar polynucleotide sequence of LAM 32.
The growth rate of AGS cells was assessed in the presence of the cathelicidins. Equal numbers of human gastric epithelial AGS cells were cultured in either control media or media conditioned with bovine cathelicidins for 72 hours in a 1:10 dilution of serum and antibiotic-free Optimem. Cells were then fixed and a Sulforhodamine B (SRB) colorimetric assay was undertaken as described in Journal of Immunological Methods 208: 151-158, K. T. Papazisis, G. D. Geromichalos, K. A. Dimitriadis, A. H. Kortsaris (1997), ‘Optimization of the sulforhodamine B colorimetric assay’.
Briefly, cells were fixed directly by incubation with 10% trichloroacetic acid for 1 hour at 4° C., washed with water, air-dried overnight and then stained with 0.4% w/v sulforhodamine B, 1% acetic acid solution for 10 minutes at room temperature. Cell were again washed with 1% acetic acid and air-dried, then counted in triplicate.

mouse ES cells = assay: Cell growth with cathelicidins in mouse ES cells; assay type: cell-based; design: cell growth Rep. 1 / cell growth Rep. 2 / cell growth Rep. 3 / cell growth Mean: unit not given here; conditions: 24 hours; for cell growth Rep. 1: 1:10 dilution conditioned media, -ve control 0.34; for cell growth Rep. 3: -ve control 0.352; for cell growth Rep. 2: -ve control 0.474; for cell growth Mean: -ve control mean 0.388666667
Protocol: Mouse ES cells were plated at 50 percent confluency and cultured for 24 hours in a 1:10 dilution of serum and antibiotic free Optimem and media conditioned with cathelicidin associated polypeptides. The medium was removed and then washed gently for 2 minutes with Mg^2+- and Ca^2+-free phosphate buffered saline 0.05% Trypsin and 1:5000 Versene to disrupt cell aggregates. Cells were collected by scraping and washed twice by resuspension in complete medium followed by centrifugation. The cells were again resuspended and counted in triplicate using a Luber haemocytometer.
(§1) The cells were counted in triplicate using a Luber haemocytometer. The negative control was media alone (i.e. conditioned media […] insertless vector). The samples were deemed statistically significant using a t-test comparing the control with the sample if the values of cell growth were 2 standard deviations higher than the mean of the negative control.

HC11 cells = assay: Cell growth with cathelicidins in HC11 cells; assay type: cell-based, mouse; design: cell growth Rep. 1 / cell growth Rep. 2 / cell growth Rep. 3 / cell growth Rep. 4 / cell growth Mean: unit not given here; conditions: 72 hours; for cell growth Rep. 1: 1:10 dilution conditioned media, -ve control 0.727; for cell growth Rep. 2: -ve control 0.76; for cell growth Rep. 3: -ve control 0.786; for cell growth Rep. 4: -ve control 0.808; for cell growth Mean: -ve control mean 0.77025; for cell growth versus control (significance): P<0.05 t-test
Protocol: FIG. 2. Cellular growth assay with HC11 cells. Mouse mammary epithelial cells, HC11 cells, were grown in media conditioned with: mock transfection (control), LAM32, LAM32a or LAM32b for 72 hours. Samples were performed in triplicate and the cells from each triplicate counted in triplicate. […] LAM 32 is represented as set forth in SEQ ID NO: 188, and two splice variants thereof, designated LAM32a and 32b as set forth in SEQ ID NO: 215 and 207 respectively.
As shown in FIG. 2 equal numbers of mouse mammary HC11 cells were grown in the presence of either a negative control or tammar wallaby cathelicidin-associated polypeptide, namely LAM 32 (SEQ ID NO: 188), LAM 32a (SEQ ID NO: 215) or LAM 32b (SEQ ID NO: 207) in order to determine the effect of these LAMs on cellular growth.
HC11 cells were initially plated at 50 percent confluency and cultured for 72 hours in a 1:10 dilution of serum and antibiotic free Optimem and media conditioned with cathelicidin associated polypeptides. The medium was removed and then washed gently for 2 minutes with Mg^2+- and Ca^2+-free phosphate buffered saline (PBS), 0.05% Trypsin and 1:5000 Versene to disrupt cell aggregates. Cells were collected by scraping and washed twice by resuspension in complete medium followed by centrifugation. The cells were again resuspended and counted in triplicate using a Luber haemocytometer.
as §1

CATHL4: bovine cathelicidin 4, known in the art (ILPWKWPWWPWRR; UniProt P33046 131-143, looked up) [reference compound]
Chick weight (chicks): 49.7 grams
cell growth Replicate 3 (AGS cells): 0.409
cell growth Replicate 1 (AGS cells): 0.626
cell growth Replicate 4 (AGS cells): 0.500
cell growth Replicate 2 (AGS cells): 0.465
cell growth Mean (AGS cells): 0.500

B1: LAM 32.11: bovine cathelicidin variant, SEQ ID NO 177 (protein)
chain: METQRASLSLGRWSLWLLLLGLVLPSASAQALSYREAMLRAVDQLNERSSEAHLYRLLGASTRPPSGHELGRGTGDEPFSCPALATLLPLHSGCTSCQEGTFPSRWVPTSSRKAVSRDLGHLPAPGYPCLSISAVGIGTLHTWLRFPGLLGSSRDGGVTGSVR
chick size versus controls (chicks; body weight relative to mean/median of all chicks tested): produced a chick larger than the controls
Chick weight (chicks): 59^ grams
cell growth Replicate 3 (AGS cells): 0.563
cell growth Replicate 1 (AGS cells): 0.365
cell growth Replicate 4 (AGS cells): 0.431
cell growth Replicate 2 (AGS cells): 0.366
cell growth Mean (AGS cells): 0.431

B2: LAM 32.9: bovine cathelicidin variant, SEQ ID NO 173 (protein)
chain: METPRASLSLGRCSLWLLLLGLVLPSASAQALSYREAVLRAVDQFNERSSEANLYRLLELDPTPNDVSYEGIWAGRPASWGAGRQIRGRRMSPNPVSPTLTHDQDLDPGTRKPVSFRVKETDCPRTSQQPLEQCDFKENGVSLGAGEKNGRCFPGIGQRAWGRLPIPGRRPGGYGHRGFSLTLNLPFQLVKTVCGTARHQHN
Chick weight (chicks): 46.5 grams
death / overall condition of chick (chicks): caused stumpy legs and loss of down
cell growth Replicate 3 (AGS cells): 0.220
cell growth Replicate 1 (AGS cells): 0.246
cell growth Replicate 4 (AGS cells): 0.229
cell growth Replicate 2 (AGS cells): 0.220
cell growth Mean (AGS cells): 0.229

B3: LAM 32a: splice variant of tammar wallaby LAM 32, SEQ ID NO 215 (protein)
chain: MRDSTMQVLLLVLGLLSLMTSLACAQDQPYQDVLNRFIQEYNTKSESESLFRLSVLNLPPEESNDPAVPLLKFTIRETVCPKTEHRNADECDFKKNGLVKQCIGTIDLDSPNPSVDISCDRPAKVKRGLWESLKRKATKLGDDIRNTLRNFKIKFPVPRQG
cell growth versus control (significance) (mouse ES cells): significantly different growth from the control
cell growth Rep. 1 (mouse ES cells): 0.575
cell growth Rep. 3 (mouse ES cells): 0.517
cell growth Rep. 2 (mouse ES cells): 0.605
cell growth Mean (mouse ES cells): 0.5657
cell growth Rep. 1 (HC11 cells): 0.958
cell growth Rep. 2 (HC11 cells): 0.977
cell growth Rep. 3 (HC11 cells): 1.008
cell growth Rep. 4 (HC11 cells): 1.102
cell growth Mean (HC11 cells): 1.011
cell growth versus control (significance) (HC11 cells): significantly more cells

B4: LAM 32b: splice variant of tammar wallaby LAM 32, SEQ ID NO 207 (protein)
chain: MRGLTMQVLLLVLGLLSLMTPLGYAQDQPYQDVLNRFIQEYNTKSESESLFRLSVLNLPSQESNDPTAPQLLKFTIRETVCSKSEHRNPEECDFKKNGVRVSWAGKGF
cell growth versus control (significance) (mouse ES cells): significantly different growth from the control
cell growth Rep. 1 (mouse ES cells): 0.676
cell growth Rep. 3 (mouse ES cells): 0.693
cell growth Rep. 2 (mouse ES cells): 0.677
cell growth Mean (mouse ES cells): 0.682
cell growth Rep. 1 (HC11 cells): 0.89
cell growth Rep. 2 (HC11 cells): 0.841
cell growth Rep. 3 (HC11 cells): 0.862
cell growth Rep. 4 (HC11 cells): 0.832
cell growth Mean (HC11 cells): 0.8562
cell growth versus control (significance) (HC11 cells): significantly more cells

B5: LAM 32.8: bovine cathelicidin variant, SEQ ID NO 171 (protein)
chain: METPRASLSLGRWSLWLLLLGLALPSAQRPGPQLQGGRASCLMESASMKKSSEANLYRLLELDPPPKEDDENPNIPKPVSFRVKETVCPRTSQQSPEQCDFKENGLLKYCVGTVSRWDQVGSNFDITCAAPQSVGGLQAWVGRYYVLGKSMAQLLFQ
Chick weight (chicks): Killed
death / overall condition of chick (chicks): caused death of chicks
cell growth Replicate 3 (AGS cells): 0.261
cell growth Replicate 1 (AGS cells): 0.441
cell growth Replicate 4 (AGS cells): 0.361
cell growth Replicate 2 (AGS cells): 0.382
cell growth Mean (AGS cells): 0.361

B6: LAM 32.10: bovine cathelicidin variant, SEQ ID NO 175 (protein)
chain: METQRASLSLGRWSLWLLLLGLVLPSASAQALSYREAMLRAVDQLNERSSEAHLYRLLELDPPPDMSWGGDRGRAFLLPALATLLPLHSGCTSCQEGTFPSRWVPTSSRKASQTWVISQHQASCLSISAVGIGTLHTWLKFPGLLGAPGMGGS
Chick weight (chicks): 53.8 grams
cell growth Replicate 3 (AGS cells): 0.534
cell growth Replicate 1 (AGS cells): 0.602
cell growth Replicate 4 (AGS cells): 0.514
cell growth Replicate 2 (AGS cells): 0.405
cell growth Mean (AGS cells): 0.514
